{
  "source": "the nanobody polyreactivity screen of Harvey et al. (2022)",
  "data": [
    {"assay": "yeast display, Sf9 membrane polyspecificity reagent, FACS + sequencing; frameworks hold sequencing errors", "outline": "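A synthetic nanobody library was expressed on Saccharomyces cerevisiae BJ5465 by galactose induction for 36–48 hours. The library was stained for 1 hour at 4 °C with 10% biotinylated, detergent-solubilized Sf9 membrane reagent and enriched with streptavidin microbeads before FACS. Low and high (top ~1%) gates were set on anti-HA fluorescence for expression and streptavidin fluorescence for reagent binding, and each polyreactivity label reflects the gate of origin.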", "values": [
      {"sequence": "QDKLVESGGGLVQEGGRLRLSCAASGRIFGNYAMGWYRQAPGKERELVAAIDLSGDSTYYADSVKGRFTISRDNAKYTVYLQMKSLKPEDTAVYYCAATDWFSEYYWGQGTQETVSS", "polyreactivity (PSR sort gate)": "low polyreactivity"},
      {"sequence": "QDLLVESGGGLVQAGGSLRLRCAASGITFAFYTMGWYRQAPGKPSELVTAISYSGGRTYNADSVKGRFTISRDNAKYTVYVQMLSLKPEDTAVYYCNTRYRGSYDYWGQGTQVTVSS", "polyreactivity (PSR sort gate)": "high polyreactivity"},
      {"sequence": "QDLLVESGGGLVQAGGSLRLSCAASGRTFWDYTMGWYRQAPGKDRELVASITRTCRTNYADSVKGRFTISRDNAKNTVYLQMNSLKTEDTAVYYCAAEVGYQGWYPSGYKFDYWGQGTQVTVSS", "polyreactivity (PSR sort gate)": "high polyreactivity"},
      {"sequence": "QDQHVESGGCLVQAGGSLRLSCAASGRTFVRNTMGWYRQAPGKEREFVAAISRSGGNTHYADSVKGRFTISRDNAKNTVYLQMNSLKPEDTAVYYCATRAGYEVYPNKMNYWGQGTQVTVSS", "polyreactivity (PSR sort gate)": "high polyreactivity"},
      {"sequence": "QDQHVESGGGIVQAGGSLRLICAASGRTFANNAMGWYRQAPGKERELVAAISWSGGSTYYADSVKGRFTISRDNAKNTVYLQMNSLKPEDTAVYYCAADSPRYGGYGYWGQGTHVTVSS", "polyreactivity (PSR sort gate)": "low polyreactivity"},
      {"sequence": "QDQHVESGGGLVQAGGSLPLSCADSGSIFPRNAMGWYRQAPGKERELVAAISRIGGSTYYADAVKGRFTISRDNAKNTVYLQMNSLKPEDTAVYYCAAPPSEWQHDYWGQGTQVTVSS", "polyreactivity (PSR sort gate)": "low polyreactivity"},
      {"sequence": "QDQHVESGGGLVQAGGSLRLICAASGNTFGWYAMGWYRQAPGKEREFVADISWSGGSTYYADSVKGRFTISRDNAKNTVYLQMNSLKQEDTAVYYCNAVWLYYWHADQYFEYDYWGQGTQVTVSS", "polyreactivity (PSR sort gate)": "high polyreactivity"},
      {"sequence": "QDQHVESGGGLVQAGGSLRLICAASGSIIQVYAIGWYRQAPGKEREFVASITRTGGSTKYADSVKGRFTISRDNAKNTVYLQMNSLKPEDTAFFYCNAVPRSWSPYRHWFDYWGQGTQVTVSS", "polyreactivity (PSR sort gate)": "low polyreactivity"},
      {"sequence": "QDQHVESGGGLVQAGGSLRLSCAASARIFVPYAMGWYRQAPGQERELVAAFSWRGGSTNYADSVKGRFTISRDNAKNTVYLQLNSLIPEDTAVYYCAAVPVRYRYSYGYYYWGQGTQVSVSS", "polyreactivity (PSR sort gate)": "high polyreactivity"},
      {"sequence": "QDQHVESGGGLVQAGGSLRLSCAASGITSKNYAMGWSRQAPGKERELVAVISGRGGSTYYADSVKGRFTITRDNAKNTVYLQMNCLKPEDTAVYYCAAYGNQRRGAYPYKYDYWGQGTQVTVSS", "polyreactivity (PSR sort gate)": "high polyreactivity"},
      {"sequence": "QDQHVESGGGLVQAGGSLRLSCAASGLTFAVYTMGWYRPAAGKERELVAAITWDGGITYYADSVKGRFTISRDNAKNTVYLQMNSLKPEDTAVYYCAADSREVSTTAYYYWGQGTQVTLSS", "polyreactivity (PSR sort gate)": "low polyreactivity"},
      {"sequence": "QDQHVESGGGLVQAGGSLRLSCAASGLTFHRYAMGWSRQAPGKERELVAAINYSGGRTYYADSVKGRFTISRDNAKNTVYLLMNSLKPEDTAVYYCAGYDYWGQGTQVTVSS", "polyreactivity (PSR sort gate)": "high polyreactivity"},
      {"sequence": "QDQHVESGGGLVQAGGSLRLSCAASGRTFAGYAMGWYRQAPGKERELVATISGRGGSTSYADSVKGRFTISRDNAKNTVYLQMNSLIPEDTAVYYCAKASWYKYKYDYWGQGTQVTVSS", "polyreactivity (PSR sort gate)": "high polyreactivity"},
      {"sequence": "QDQHVESGGGLVQAGGSLRLSCAASGRTFYQYAMGWYRQAPGKERELVAVINGGGSTNYADSVKGRFTISRDNAKNTVYLQMNSLKPEDTAVYYCNAGSVSDRQMDYWGQGTQVTVSS", "polyreactivity (PSR sort gate)": "low polyreactivity"},
      {"sequence": "QDQHVESGGGLVQAGGSLRLSCAASGRTFYSYTMGWYRPPPGKERELVAAINRSGGRTYYADSVKGRFTISRDNAKNTVYLQRNSLKPEDTAVYYCNALEYYRFDYWGQCTQVTVSS", "polyreactivity (PSR sort gate)": "high polyreactivity"},
      {"sequence": "QDQHVESGGGLVQAGGSLRLSCAASGSIFNYYAMGWYRQAPGKEREFVAAISRSGGSTYYADSEKGRFTISRDNAKNTVYLEMNSLKPEDTAVYYCNAYSYSEAGDDGDYWGQGTQVTVSS", "polyreactivity (PSR sort gate)": "low polyreactivity"},
      {"sequence": "QDQHVESGGGLVQAGGSLRLSCAASGSTFRKYAMGRSRQAPGKERELVAAISWSGGRTYYADSVKGRFTISRDNAKKTFYLQLNSLKPEDTAVYYCAASIPGTRSDGYWGQGTQVTVSS", "polyreactivity (PSR sort gate)": "high polyreactivity"}
    ]}
  ]
}
